{
  "source": "patent US20170209564A1",
  "binders": {"B1": {"name": "monoclonal antibody CR6261 (antibody, V domains shown)", "VH": "EVQLVESGAEVKKPGSSVKVSCKASGGPFRSYAISWVRQAPGQGPEWMGGIIPIFGTTKYAPKFQGRVTITADDFAGTVYMELSSLRSEDTAMYYCAKHMGYQVRETMDVWGKGTTVTVSS", "VL": "QSVLTQPPSVSAAPGQKVTISCSGSSSNIGNDYVSWYQQLPGTAPKLLIYDNNKRPSGIPDRFSGSKSGTSATLGITGLQTGDEANYYCATWDRRPTAYVVFGGGTKLTVLG"}},
  "molecular_target": "s127H1-t2 (Influenza A virus H1N1 A/Brisbane/59/2007)",
  "settings": "remark: other sources report otherwise",
  "data": [
    {"binder": "B1", "values": [
      {"measurement": "Kd", "value": 3.5, "unit": "nM"}
    ]}
  ]
}
